# In PMC4549301 (2015):
# B1: GST–HCF-1rep1, wild type (HCF-1 residues 867–1071) [human] / Recombinant human O-linked β-N-acetylglucosamine transferase (OGT), wild type [human] (parent complex)
# chain 1: PAVTTLVVKGTTGVTTLGTVTGTVSTSLAGAGGHSTSASLATPITTLGTIATLSSQVINPTAITVSAAQTTLTAAGGLTTPTITMQPVSQPTQVTLITAPSGVEAQPVHDLPVSILASPTTEQPTATVTIADSGQGDVQPGTVTLVCSNPPCETHETGTTNTATTTVVANLGGHPQPTQVQFVCDRQEAAASLVTSTVGQQNGSV
# chain 2: MASSVGNVADSTGLAELAHREYQAGDFEAAERHCMQLWRQEPDNTGVLLLLSSIHFQCRRLDRSAHFSTLAIKQNPLLAEAYSNLGNVYKERGQLQEAIEHYRHALRLKPDFIDGYINLAAALVAAGDMEGAVQAYVSALQYNPDLYCVRSDLGNLLKALGRLEEAKACYLKAIETQPNFAVAWSNLGCVFNAQGEIWLAIHHFEKAVTLDPNFLDAYINLGNVLKEARIFDRAVAAYLRALSLSPNHAVVHGNLACVYYEQGLIDLAIDTYRRAIELQPHFPDAYCNLANALKEKGSVAEAEDCYNTALRLCPTHADSLNNLANIKREQGNIEEAVRLYRKALEVFPEFAAAHSNLASVLQQQGKLQEALMHYKEAIRISPTFADAYSNMGNTLKEMQDVQGALQCYTRAIQINPAFADAHSNLASIHKDSGNIPEAIASYRTALKLKPDFPDAYCNLAHCLQIVCDWTDYDERMKKLVSIVADQLEKNRLPSVHPHHSMLYPLSHGFRKAIAERHGNLCLDKINVLHKPPYEHPKDLKLSDGRLRVGYVSSDFGNHPTSHLMQSIPGMHNPDKFEVFCYALSPDDGTNFRVKVMAEANHFIDLSQIPCNGKAADRIHQDGIHILVNMNGYTKGARNELFALRPAPIQAMWLGYPGTSGALFMDYIITDQETSPAEVAEQYSEKLAYMPHTFFIGDHANMFPHLKKKAVIDFKSNGHIYDNRIVLNGIDLKAFLDSLPDVKIVKMKCPDGGDNADSSNTALNMPVIPMNTIAEAVIEMINRGQIQITINGFSISNGLATTQINNKAATGEEVPRTIIVTTRSQYGLPEDAIVYCNFNQLYKIDPSTLQMWANILKRVPNSVLWLLRFPAVGEPNIQQYAQNMGLPQNRIIFSPVAPKEEHVRRGQLADVCLDTPLCNGHTTGMDVLWAGTPMVTMPGETLASRVAASQLTCLGCLELIAKNRQEYEDIAVKLGTDLEYLKKVRGKVWKQRISSPLFNTKQYTMELERLYLQMWEHYAAGNKPDHMIKPVEVTESA
# Variants of: B1
# Test: in vitro HCF-1rep1-OGT binding assay (OGT pull-down, quantified immunoblot); in the presence of UDP-GlcNAc; read off a plot
row,Variant,screen value [log2 fold change]
1,chain 1 T154A,~0.3
2,chain 1 H155A,~-0.5
3,chain 1 T157A,~-3
4,chain 1 P150A,~-1.7
5,chain 1 P151A,~-0.7
6,chain 1 C152A,~-0.55
7,chain 1 E156A,~-1.1
